These results are taken from patent US20250206841A1 (ADEPT THERAPEUTICS, published 2025).

One assay concerns the target T1, human Trop-2-His protein (human, UniProt P09758 27-274).
T1 construct: extracellular domain; Assay paragraphs say only 'Trop-2-His'; also called hTrop-2; Kactus Cat #TRP-HM121; not shown: His tag
T1 sequence (looked up): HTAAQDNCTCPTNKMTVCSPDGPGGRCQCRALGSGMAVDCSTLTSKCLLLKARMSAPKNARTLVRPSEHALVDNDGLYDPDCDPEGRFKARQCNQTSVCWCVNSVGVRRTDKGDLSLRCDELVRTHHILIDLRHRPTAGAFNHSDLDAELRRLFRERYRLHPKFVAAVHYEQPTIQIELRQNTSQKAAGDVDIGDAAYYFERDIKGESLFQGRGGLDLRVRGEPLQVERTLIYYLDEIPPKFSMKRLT
Kind of assay: BLI (Gator Plus), purified Ab on HFC probe. On the procedure: The affinity of the binding of the exemplary anti-Trop-2 antibodies of the present disclosure were determined. Assay was performed using Gator Plus according to the protocol recommended by Gator Bio Inc.. Briefly, human Trop-2-His (Kactus) was 1:4 fold serially diluted starting at 1 μg/ml. After three times of regeneration and neutralization of HFC probe, 1 μg/ml of antibody to be tested in Q buffer was immobilized onto HFC probe. […] The association and dissociation of human Trop-2-His antigen from antibody was measured on BLI machine Gator Plus. Affinity was calculated using Gator Bio analysis software. Blank control was used for reference subtraction. Sacituzumab govitecan was used as positive control.

The target of another assay is T2, rat Trop-2 (rat, UniProt Q6P9Z6 25-270, limits assumed).
T2 sequence (looked up): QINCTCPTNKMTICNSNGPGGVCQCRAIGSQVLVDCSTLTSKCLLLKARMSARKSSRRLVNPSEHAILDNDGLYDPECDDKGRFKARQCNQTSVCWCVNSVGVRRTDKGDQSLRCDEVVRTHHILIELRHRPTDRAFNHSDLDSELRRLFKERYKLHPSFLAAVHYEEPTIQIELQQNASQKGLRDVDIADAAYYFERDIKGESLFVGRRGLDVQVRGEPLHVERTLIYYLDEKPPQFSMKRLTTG
Kind of assay: ELISA, similar to Table 24. As for the experimental part: (§1) Purified antibodies were tested by ELISA to confirm their binding and affinity against human and cynomolgus Trop-2-His protein. Briefly, 96-well Maxisorp plates (Nunc) were coated with 100 μl/well of 0.5 μg/ml human (Kactus Cat #TRP-HM121, or Sino Biological, Cat #10428-HO8H) or cynomolgus Trop-2 protein (Kactus Cat #TRP-CM121, or Sino Biological, Cat #90893-CO8H) diluted in 1×PBS (GIBCO) overnight at 4° C. Plates were washed four times with 300 μl/well washing buffer (1×PBST, diluted from 20×PBST (Thermo Scientific) with distilled water)) and then blocked with 300 μl/well of blocking buffer (1×PBST/3% BSA (BSA, Sigma)) for 2 hours at RT on plate shaker at 100 rpm. Plates were washed and added with 100 μl/well of testing antibodies, which were serial diluted with assay buffer (PBST/1% BSA). The antibodies were incubated at room temperature for 2 hours on plate shaker at 100 rpm. Plates were washed. One hundred microliters (100 μl) of 1:10,000 diluted horseradish peroxidase (HRP) conjugated anti-hIgG antibody (Jackson Immuno Research) was added into each well and incubated at room temperature for 1 hour on plate shaker at 100 rpm. Plates were washed and added with 100 μl/well TMB substrate for color development in dark at room temperature for up to 10 minutes. After addition of 50 μl/well of stop solution (1N H₂SO₄), plates were read at 450 nm on a plate reader (SpectraMax M5). EC₅₀ values were calculated using Graphpad Prism. Sacituzumab govitecan, was used as positive control. Anti-HEL.hIgG1 was used as isotype control.
(§2) Similar assays were performed to test whether the exemplary antibodies of the present disclosure bind to human Trop-1 (EpCAM) or mouse Trop-2 (Kactus, Cat #TRP-MM121) or rat Trop-2 (kactus, Cat #TRP_RM121). No binding of the exemplary antibodies of the present disclosure to human Trop-1 (EpCAM) or mouse or rat Trop-2 has been detected.

For another assay, the target named is T3, human Trop-1 (EpCAM) (human, UniProt P16422 24-265, limits assumed).
T3 sequence (looked up): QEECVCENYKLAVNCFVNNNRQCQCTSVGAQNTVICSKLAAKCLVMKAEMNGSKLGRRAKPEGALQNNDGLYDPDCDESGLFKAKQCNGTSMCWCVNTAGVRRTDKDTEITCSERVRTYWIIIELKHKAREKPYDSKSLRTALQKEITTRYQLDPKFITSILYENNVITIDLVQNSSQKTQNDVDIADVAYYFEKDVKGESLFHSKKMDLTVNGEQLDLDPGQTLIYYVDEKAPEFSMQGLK
Kind of assay: ELISA, similar to Table 24. On the procedure: as §1, §2

For a further assay, the target named is T4, mouse Trop-2 (mouse, UniProt Q8BGV3 25-270, limits assumed).
T4 construct: also called Kactus Cat #TRP-MM121
T4 sequence (looked up): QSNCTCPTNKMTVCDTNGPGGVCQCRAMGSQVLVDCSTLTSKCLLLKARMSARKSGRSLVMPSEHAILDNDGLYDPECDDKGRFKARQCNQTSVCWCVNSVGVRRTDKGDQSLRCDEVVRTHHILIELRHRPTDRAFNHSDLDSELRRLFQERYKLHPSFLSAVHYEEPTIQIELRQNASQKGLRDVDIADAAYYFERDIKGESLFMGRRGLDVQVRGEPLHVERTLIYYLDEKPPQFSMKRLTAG
Kind of assay: ELISA, similar to Table 24. As for the experimental part:
as §1, §2
A general note: ELISA stands for enzyme-linked immunosorbent assay.

Assay [1] concerns the target T5, human Trop-2 expressed on cell surface (human, UniProt P09758 27-323).
T5 sequence (looked up): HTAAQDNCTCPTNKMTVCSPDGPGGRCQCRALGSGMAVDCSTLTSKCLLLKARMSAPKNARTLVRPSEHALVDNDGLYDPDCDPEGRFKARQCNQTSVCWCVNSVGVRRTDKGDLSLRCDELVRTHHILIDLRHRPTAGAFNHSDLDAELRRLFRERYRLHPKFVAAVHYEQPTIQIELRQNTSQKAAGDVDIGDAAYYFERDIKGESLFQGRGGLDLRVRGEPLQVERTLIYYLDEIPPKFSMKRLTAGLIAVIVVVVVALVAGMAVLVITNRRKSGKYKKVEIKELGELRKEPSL
Kind of assay: cell-based or functional assay.

For orientation: Kd means the equilibrium constant for the complex coming apart. By koff is commonly meant the first-order rate constant of dissociation. The kon is the rate constant with which the complex forms.

B1: 1D10 (antibody, V domains shown)
VH: QEQLKESGGGLVQPGGSLTLSCKASGFDFNYYGVSWVRQAPGKGLEWIGYIYPAYHNTYYATWVNGRFTISSHNAQNTLYLQLNTLTAADTATYFCARDAGSTDYNLNLWGPGTLVTVSS
VL: DVVMTQTPASVEVAVGGTVTIKCQASEDIESYLAWYQQKPGQPPRLLIYEASKLASGVSSRFSGGGYGTDFTLTISGVECADAATYYCHQALTIGNVDNPFGGGGEVVVK
notes: Rabbit-derived clone; LEM construct: VH + rabbit IgG CH1 + human IgG1 CH2-CH3
On to B1, for which, in the assay with human Trop-2-His protein, the Kd came to 0.22 nM, the off-rate constant (koff) was 0.000131 s⁻¹ and the kon was determined as 604000 M⁻¹ s⁻¹. Moreover, the binding result with rat Trop-2 is “no binding”. Besides, in the assay with human Trop-1 (EpCAM), the binding result is recorded as “no binding”. Moreover, the binding result with mouse Trop-2 is listed as “no binding”. In assay [1], the “Internalization %, MCF-7, 0.25 µg/ml, 1 h” value is 30%; the “Internalization %, MCF-7, 0.25 µg/ml, 2 h” value came to 56%; the “Internalization %, MCF-7, 0.25 µg/ml, 4 h” value was 49%; the “Internalization %, MCF-7, 0.5 µg/ml, 1 h” value amounted to 44%. In assay [1], the “Internalization %, MCF-7, 0.5 µg/ml, 2 h” value was determined as 54% and the “Internalization %, MCF-7, 0.5 µg/ml, 4 h” value came out at 65%.

B2: 72F12 (antibody, V domains shown)
VH: QEQLKESGGGLVQPGGSLKLSCKASGFDFNNYGVSWVRQAPGKGLEWIAYIYPAFHNTYYATWVNGRFTISSHNAQNTLYLQLNSLTAADTATYFCARDAGSVDYNFNLWGPGTLVTVSS
VL: DVVMTQTPASVEVAVGGTVTIKCQASKNIDSNLAWYQQKPGQPPKQLIYAASTLASGVSSRFSGSGYGAEFTLTISGVECADAATYYCQQALTIGNVDNPFGGGSEVVVK
notes: as for B1
Consider B2, for which, in the assay with human Trop-2-His protein, the Kd came to 0.63 nM, the off-rate constant (koff) came out at 0.000541 s⁻¹ and the kon turned out to be 865000 M⁻¹ s⁻¹. For the same molecule, in the assay with rat Trop-2, the binding result is “no binding”. The binding result with human Trop-1 (EpCAM) is given as “no binding”. The binding result with mouse Trop-2 is on record as “no binding”. Also, in assay [1], the “Internalization %, MCF-7, 0.25 µg/ml, 1 h” value is 21%; the “Internalization %, MCF-7, 0.25 µg/ml, 2 h” value was 37%; the “Internalization %, MCF-7, 0.25 µg/ml, 4 h” value was 47%; the “Internalization %, MCF-7, 0.5 µg/ml, 1 h” value came to 24%. In addition, in assay [1], the “Internalization %, MCF-7, 0.5 µg/ml, 2 h” value came to 39% and the “Internalization %, MCF-7, 0.5 µg/ml, 4 h” value was 48%.

B3: 9F7 (antibody, V domains shown)
VH: QEQLKESGGGLVQPGGSLTLSCKASGFDFNNYGVSWVRQAPGKGLEWIGYIYPAYHNTYYATWVNGRFTISSHNAQNTLYLQLNTLTAADTATYFCARDTGSTDYNFNLWGPGTLVTVSS
VL: DVVMTQTPASVEVAVGGTVTIKCQASEDIESYLAWYQQKPGQPPKLLIYEASKLASGVSSRFSGGGYGTEFTLTISGVECADAATYYCQQALTVGNVDNPFGGGSEVVVK
notes: as for B1
Turning to B3, in the assay with human Trop-2-His protein, the Kd was found to be 0.04 nM, the koff turned out to be 2.8e-05 s⁻¹ and the on-rate constant (kon) was 634000 M⁻¹ s⁻¹. The binding result with rat Trop-2 is “no binding”. The binding result with human Trop-1 (EpCAM) is “no binding”. In addition, the binding result with mouse Trop-2 is given as “no binding”. Moreover, in assay [1], the “Internalization %, MCF-7, 0.25 µg/ml, 1 h” value is 2%; the “Internalization %, MCF-7, 0.25 µg/ml, 2 h” value was found to be 31%; the “Internalization %, MCF-7, 0.25 µg/ml, 4 h” value amounted to 36%; the “Internalization %, MCF-7, 0.5 µg/ml, 1 h” value worked out at 29%. In addition, in assay [1], the “Internalization %, MCF-7, 0.5 µg/ml, 2 h” value worked out at 44% and the “Internalization %, MCF-7, 0.5 µg/ml, 4 h” value was 49%.

B4: 62E3 (antibody, V domains shown)
VH: QEQLKESGGGLVQPGGSLKLSCKASGFDFNEYGVSWVRQAPGKGLEWIAYIYPAFHNTYYATWVNGRFTISSHNAQNTLYLQLNTLTAADTATYFCARDAGTTDYNFNLWGPGTLVTVSS
VL: DVVMTQTASPVSAAVGGTVTIKCQASEDIESYLAWYQQKPGQPPKLLIYEASKLASGVSSRFSGSGYGTEFTLTISGVECADAATYYCQQALTIGNVDNPFGGGSEVVVK
notes: as for B1
As for B4, in the assay with human Trop-2-His protein, the Kd amounted to 0.59 nM, the koff worked out at 0.000429 s⁻¹ and the kon is 726000 M⁻¹ s⁻¹. Further, in the assay with rat Trop-2, the binding result is “no binding”. Besides, the binding result with human Trop-1 (EpCAM) was “no binding”. Further, the binding result with mouse Trop-2 is recorded as “no binding”. Further, in assay [1], the “Internalization %, MCF-7, 0.25 µg/ml, 1 h” value is 23%; the “Internalization %, MCF-7, 0.25 µg/ml, 2 h” value is 39%; the “Internalization %, MCF-7, 0.25 µg/ml, 4 h” value was 45%; the “Internalization %, MCF-7, 0.5 µg/ml, 1 h” value came to 21%. Also, in assay [1], the “Internalization %, MCF-7, 0.5 µg/ml, 2 h” value amounted to 41% and the “Internalization %, MCF-7, 0.5 µg/ml, 4 h” value is 40%.

B5: 9D7 (antibody, V domains shown)
VH: QSLEESGGDLVQPGASLTLTCKASGFDLNNYSILWVRQAPGKGLEWIGCIYISGGSTYYANWAKGRFAISKTSSTTVTLQMTSLTAADTATYFCARDDGTASYYLNLWGPGTLVTVSS
VL: YDMTQTPASVSEPVGGTVTIKCQASEDIYKLLAWYQQKPGQPPKLLIYAASDLESGVPSRFKGRGSGTDYTLTISDLECADAATYYCQQAYTIGNIDNSFGGGTEVVVK
notes: as for B1
Regarding B5, in the assay with human Trop-2-His protein, the Kd is less than 0.002 nM, the koff is less than 1e-06 s⁻¹ and the kon stood at 432000 M⁻¹ s⁻¹. Further, the binding result with rat Trop-2 was “no binding”. Besides, in the assay with human Trop-1 (EpCAM), the binding result is listed as “no binding”. Also, in the assay with mouse Trop-2, the binding result was “no binding”. Further, in assay [1], the “Internalization %, MCF-7, 0.25 µg/ml, 1 h” value was found to be 42%; the “Internalization %, MCF-7, 0.25 µg/ml, 2 h” value worked out at 75%; the “Internalization %, MCF-7, 0.25 µg/ml, 4 h” value was found to be 69%; the “Internalization %, MCF-7, 0.5 µg/ml, 1 h” value came out at 46%. Moreover, in assay [1], the “Internalization %, MCF-7, 0.5 µg/ml, 2 h” value turned out to be 60% and the “Internalization %, MCF-7, 0.5 µg/ml, 4 h” value was determined as 65%.
